Reference: US20100008928A1 (Takeda / Millennium, published 2010)
Changes are numbered by the printed parent chain.

Columns and labels:
Assay in all cases: FCM
[1] = biological target: T1, nectin-2 Ig2 domain-deficient protein (human, UniProt Q92692 32-538)
T1 construct: transient in CHO-K1; also called delta-Ig2; Nectin-2ΔIg2
T1 sequence: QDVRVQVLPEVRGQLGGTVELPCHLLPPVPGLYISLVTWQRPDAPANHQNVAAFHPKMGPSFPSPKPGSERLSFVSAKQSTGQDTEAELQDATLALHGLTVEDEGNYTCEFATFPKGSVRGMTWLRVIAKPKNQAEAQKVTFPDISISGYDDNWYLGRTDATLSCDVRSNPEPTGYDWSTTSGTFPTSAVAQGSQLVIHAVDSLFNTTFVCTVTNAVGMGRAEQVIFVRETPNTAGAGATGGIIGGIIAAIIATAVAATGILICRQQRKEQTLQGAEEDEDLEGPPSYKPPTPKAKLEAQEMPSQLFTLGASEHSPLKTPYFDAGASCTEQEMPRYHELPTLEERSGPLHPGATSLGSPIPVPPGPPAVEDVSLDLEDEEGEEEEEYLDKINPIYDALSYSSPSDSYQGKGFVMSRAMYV
Experimental: (§1) After 200 μL of FCM buffer was added to each well and washed once by centrifugal operation, 50 μL each of Alexa488-labeled secondary antibody diluted in FCM buffer to 10 μg/mL was added to and mixed therewith, and the mixture was then reacted on ice for an hour. The Alexa488-labeled secondary antibody used was Alexa Fluor488 goat anti-human IgG (H+L) for the human antibodies and Alexa Fluor488 goat anti-rabbit IgG (H+L) (Invitrogen) for the rabbit antibody. The cells in each well were washed twice with FCM buffer and then resuspended in 250 μL of FCM buffer. Using the flow cytometer MPL500 (BECKMAN COULTER), the fluorescence intensity of stained cells was measured to determine the ratio of the median value of fluorescence intensities of the respective antibodies in the primary antibody group to the median value of fluorescence intensities in the negative control group.

[2] = biological target: T2, nectin-2 Ig1 domain-deficient protein (human, UniProt Q92692 32-538)
T2 construct: transient in CHO-K1; also called delta-Ig1; Nectin-2ΔIg1
T2 sequence: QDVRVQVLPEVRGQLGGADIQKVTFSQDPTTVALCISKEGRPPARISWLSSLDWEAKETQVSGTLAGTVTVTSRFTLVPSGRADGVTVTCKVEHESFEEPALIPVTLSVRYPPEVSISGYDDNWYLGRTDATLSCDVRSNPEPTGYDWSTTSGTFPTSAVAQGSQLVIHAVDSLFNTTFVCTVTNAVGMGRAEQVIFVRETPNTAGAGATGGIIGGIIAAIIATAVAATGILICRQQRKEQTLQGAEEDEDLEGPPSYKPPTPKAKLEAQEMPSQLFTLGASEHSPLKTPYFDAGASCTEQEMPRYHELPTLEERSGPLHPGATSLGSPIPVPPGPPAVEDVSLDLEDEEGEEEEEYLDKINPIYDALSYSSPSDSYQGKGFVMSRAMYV
Experimental: as §1

human Nec1-5 protein = biological target: T3, human Nec1-5 protein (human, UniProt P15151 21-417)
T3 construct: transient in CHO-K1 from pCMV-Tag4-Nec1-5; also called Necl-5
T3 sequence: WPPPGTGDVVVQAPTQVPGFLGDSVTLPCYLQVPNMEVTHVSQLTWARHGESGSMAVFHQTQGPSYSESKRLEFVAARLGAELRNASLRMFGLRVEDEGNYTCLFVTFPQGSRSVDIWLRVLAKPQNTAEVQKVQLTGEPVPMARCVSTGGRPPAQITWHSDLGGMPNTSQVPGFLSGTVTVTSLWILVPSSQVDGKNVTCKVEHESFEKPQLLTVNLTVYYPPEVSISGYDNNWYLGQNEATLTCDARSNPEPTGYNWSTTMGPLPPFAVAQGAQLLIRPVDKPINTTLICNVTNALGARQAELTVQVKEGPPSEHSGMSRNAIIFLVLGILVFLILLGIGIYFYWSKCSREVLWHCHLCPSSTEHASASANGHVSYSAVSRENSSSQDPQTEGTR
Experimental: (§2) Specifically, CHO-K1 cell line was incubated in a T75 flask charged with a medium mixture of DMEM and F-12 in equivalent volumes (Invitrogen) supplmented with 10% FBS (JRH) at 37° C. for 1 to 2 days in a 5% carbon dioxide gas flow. […] Four hours after the transfection, the medium for the CHO-K1 cells was exchanged with a fresh aliquot of the medium described above, followed by incubation for further 2 days. These cells were washed twice with D-PBS, detached by Cell Dissociation Buffer, enzyme-free, PBS-based (Invitrogen) and resuspended in D-PBS (−) containing 1% FBS and 0.1% sodium azide (hereinafter referred to as FCM buffer) at a density of 5×10⁶ cells/mL. […] After 200 μL of FCM buffer was added to each well and washed once by centrifugal operation, 50 μL/well of Alexa488-labeled secondary antibody diluted in FCM buffer to 10 μg/mL was added for suspension, which was then reacted on ice for an hour.

human nectin-4 protein = biological target: T4, human nectin-4 protein (human, UniProt Q96NY8 32-510)
T4 construct: transient in CHO-K1 from pCMV-Tag4-Nectin-4
T4 sequence: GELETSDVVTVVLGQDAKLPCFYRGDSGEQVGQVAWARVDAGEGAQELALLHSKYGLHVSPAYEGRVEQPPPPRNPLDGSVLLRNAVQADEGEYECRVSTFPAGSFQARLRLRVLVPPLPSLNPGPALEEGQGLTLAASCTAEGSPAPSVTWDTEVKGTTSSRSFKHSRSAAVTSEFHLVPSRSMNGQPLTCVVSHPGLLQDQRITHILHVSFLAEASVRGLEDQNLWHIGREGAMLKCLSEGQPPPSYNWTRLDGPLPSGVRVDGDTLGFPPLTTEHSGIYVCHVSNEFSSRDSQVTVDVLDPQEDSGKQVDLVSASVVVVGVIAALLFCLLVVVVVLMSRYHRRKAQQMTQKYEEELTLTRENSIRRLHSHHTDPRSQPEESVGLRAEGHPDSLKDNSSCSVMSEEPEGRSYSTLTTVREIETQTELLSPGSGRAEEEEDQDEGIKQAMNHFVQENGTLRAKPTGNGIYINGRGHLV
Experimental: as §2

human nectin-1 protein = biological target: T5, human nectin-1 protein (human, UniProt Q15223 31-517)
T5 construct: transient in CHO-K1 from pCMV-Tag4-Nectin-1
T5 sequence: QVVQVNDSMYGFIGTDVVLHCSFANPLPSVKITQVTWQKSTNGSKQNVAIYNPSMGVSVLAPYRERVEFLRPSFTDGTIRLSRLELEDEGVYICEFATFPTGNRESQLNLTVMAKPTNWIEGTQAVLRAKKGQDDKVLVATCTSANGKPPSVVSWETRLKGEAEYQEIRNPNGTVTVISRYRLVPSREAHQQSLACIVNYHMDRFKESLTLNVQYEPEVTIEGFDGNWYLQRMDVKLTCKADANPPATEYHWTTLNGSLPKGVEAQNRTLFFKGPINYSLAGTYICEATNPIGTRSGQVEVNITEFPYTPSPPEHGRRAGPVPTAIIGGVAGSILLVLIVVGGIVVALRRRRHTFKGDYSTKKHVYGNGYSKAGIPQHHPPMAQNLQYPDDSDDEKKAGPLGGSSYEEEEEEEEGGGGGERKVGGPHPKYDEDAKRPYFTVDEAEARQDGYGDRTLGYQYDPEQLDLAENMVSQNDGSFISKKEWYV
Experimental: as §2

B1: Nec1-554-1 SP3 (antibody, V domains shown)
VH: EVQLVESGGGLVKPGGSLRLSCAASGFTFSSYNMNWVRQAPGKGLEWVSSISSSSSYIYYADSVKGRFTISRDNAKNSLYLQMNSLRAEDTAVYYCARDYYGSGTYYLFDYWGQGTLVTVSS
VL: EIVLTQSPDFQSVTPKEKVTITCRASQSIGSSLHWYQQKPDQSPKLLIKYASQSFSGVPSRFSGSGSGTDFTLTINSLEAEDAAAYYCHQSRSLPITFGQGTRLEIK
notes: also called antibody fraction (SP3)
binding result [1]: no binding (tested: ratio <2 = no reactivity; 6 µg/mL) | median fluorescence ratio [2]: 4.3

B2: Nec1-803-2 (antibody, human IgG1, V domains shown)
VH: QVQLQESGPGLVKPSETLSLTCTVSGGSISSYYWTWIRQPPGKGLEWIGYIYYSGSTNSNPSLKSRVTISVDTSKNQFSLKLSSVTAADTAVYYCTRDPGEDYNYGMDVWGQGTTVTVSS
VL: AIQLTQSPSSLSASVGDRVTITCRASQGISSALAWYQQKPGKAPKLLIYDASSLESGVPSRFSGSGSGTDFTLTISSLQPEDFATYYCQQFNSYPRTFGQGTKVEIK
binding result (human Nec1-5 protein): no binding (tested: 6 µg/mL) | binding result (human nectin-4 protein): no binding (tested: 6 µg/mL) | binding result (human nectin-1 protein): no binding (tested: 6 µg/mL)

B3: Nec1-834-1 (antibody, human IgG1, V domains shown)
VH: B2 VH with G26S, G27A, T35S, S59Y, V71I, T96A, P99A, N104S
VL: AIQLTQSPSSLSASVGDRVTITCRASQGISSALAWYQQKPGKAPKLLIYDASSLESGVPSRFSGSGSGTDFTLTISSLQPEDFATYYCQQFNSYRTFGQGTKVEIK
notes: human IgG1/k from hybridoma FERM BP-10428
binding result (human Nec1-5 protein): no binding (tested: 6 µg/mL) | binding result (human nectin-4 protein): no binding (tested: 6 µg/mL) | binding result (human nectin-1 protein): no binding (tested: 6 µg/mL)
